Max MFI data for two substances are collected here from patent EP4582451A1.

The target of test [1] is human thyroid-stimulating hormone receptor (TSHR) (human) (UniProt P16473). Kind of test: flow cytometry (FACS), 293 cells overexpressing human TSHR; negative control.
For test [2], the target named is mouse thyroid-stimulating hormone receptor (TSHR) (mouse) (UniProt P47750). Kind of test: flow cytometry (FACS), 293 cells overexpressing mouse TSHR; negative control.
The target of test [3] is monkey thyroid-stimulating hormone receptor (TSHR) (monkey). In words: flow cytometry (FACS), 293 cells overexpressing monkey TSHR; negative control. Background: Flow cytometry measures light scatter and fluorescence of single cells or particles in a stream.
Sequence of monkey thyroid-stimulating hormone receptor (TSHR) (monkey) (A0A2K5 entry or part of it limits assumed, form in doubt): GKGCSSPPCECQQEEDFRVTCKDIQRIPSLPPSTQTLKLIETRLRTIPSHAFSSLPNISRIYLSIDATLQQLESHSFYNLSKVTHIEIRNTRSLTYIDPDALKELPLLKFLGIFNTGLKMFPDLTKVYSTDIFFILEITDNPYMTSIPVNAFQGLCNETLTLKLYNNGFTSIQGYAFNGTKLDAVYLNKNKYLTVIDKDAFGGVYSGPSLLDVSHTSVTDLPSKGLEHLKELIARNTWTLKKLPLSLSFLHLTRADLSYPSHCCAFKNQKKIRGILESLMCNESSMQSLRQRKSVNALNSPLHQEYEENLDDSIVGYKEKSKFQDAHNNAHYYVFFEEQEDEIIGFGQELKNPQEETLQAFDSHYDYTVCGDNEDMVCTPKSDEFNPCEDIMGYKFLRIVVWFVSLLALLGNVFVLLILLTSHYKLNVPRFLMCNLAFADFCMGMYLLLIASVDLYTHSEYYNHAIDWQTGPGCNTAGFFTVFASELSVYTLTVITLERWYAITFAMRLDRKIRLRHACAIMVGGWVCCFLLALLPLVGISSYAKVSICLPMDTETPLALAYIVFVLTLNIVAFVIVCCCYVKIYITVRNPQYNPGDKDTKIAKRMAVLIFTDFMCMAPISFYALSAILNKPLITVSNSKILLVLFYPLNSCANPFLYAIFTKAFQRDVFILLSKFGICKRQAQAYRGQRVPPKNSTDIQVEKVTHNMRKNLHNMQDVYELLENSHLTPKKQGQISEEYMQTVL

Sequence of human thyroid-stimulating hormone receptor (TSHR) (human) (P16473 21-764): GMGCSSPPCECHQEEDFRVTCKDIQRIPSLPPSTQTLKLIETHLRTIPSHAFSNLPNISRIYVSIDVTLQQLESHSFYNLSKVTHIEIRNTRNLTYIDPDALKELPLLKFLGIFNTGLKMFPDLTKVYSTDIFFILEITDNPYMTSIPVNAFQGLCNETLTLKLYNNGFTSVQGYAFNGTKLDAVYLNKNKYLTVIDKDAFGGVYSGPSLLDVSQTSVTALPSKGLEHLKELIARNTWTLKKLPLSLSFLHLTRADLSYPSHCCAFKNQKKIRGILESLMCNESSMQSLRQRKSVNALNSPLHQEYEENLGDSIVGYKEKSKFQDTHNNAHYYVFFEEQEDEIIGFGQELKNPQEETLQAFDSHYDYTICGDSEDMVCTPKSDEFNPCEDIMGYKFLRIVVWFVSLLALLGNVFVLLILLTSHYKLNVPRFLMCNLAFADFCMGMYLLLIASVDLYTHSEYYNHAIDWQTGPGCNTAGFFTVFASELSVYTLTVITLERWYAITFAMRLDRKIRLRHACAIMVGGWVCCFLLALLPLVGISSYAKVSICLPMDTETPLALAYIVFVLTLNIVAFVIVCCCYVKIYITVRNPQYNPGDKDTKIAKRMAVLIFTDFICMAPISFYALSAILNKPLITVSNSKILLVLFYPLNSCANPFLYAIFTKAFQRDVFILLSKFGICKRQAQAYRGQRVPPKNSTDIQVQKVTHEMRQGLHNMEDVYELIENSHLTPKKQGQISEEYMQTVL
Sequence of mouse thyroid-stimulating hormone receptor (TSHR) (mouse) (P47750 22-764): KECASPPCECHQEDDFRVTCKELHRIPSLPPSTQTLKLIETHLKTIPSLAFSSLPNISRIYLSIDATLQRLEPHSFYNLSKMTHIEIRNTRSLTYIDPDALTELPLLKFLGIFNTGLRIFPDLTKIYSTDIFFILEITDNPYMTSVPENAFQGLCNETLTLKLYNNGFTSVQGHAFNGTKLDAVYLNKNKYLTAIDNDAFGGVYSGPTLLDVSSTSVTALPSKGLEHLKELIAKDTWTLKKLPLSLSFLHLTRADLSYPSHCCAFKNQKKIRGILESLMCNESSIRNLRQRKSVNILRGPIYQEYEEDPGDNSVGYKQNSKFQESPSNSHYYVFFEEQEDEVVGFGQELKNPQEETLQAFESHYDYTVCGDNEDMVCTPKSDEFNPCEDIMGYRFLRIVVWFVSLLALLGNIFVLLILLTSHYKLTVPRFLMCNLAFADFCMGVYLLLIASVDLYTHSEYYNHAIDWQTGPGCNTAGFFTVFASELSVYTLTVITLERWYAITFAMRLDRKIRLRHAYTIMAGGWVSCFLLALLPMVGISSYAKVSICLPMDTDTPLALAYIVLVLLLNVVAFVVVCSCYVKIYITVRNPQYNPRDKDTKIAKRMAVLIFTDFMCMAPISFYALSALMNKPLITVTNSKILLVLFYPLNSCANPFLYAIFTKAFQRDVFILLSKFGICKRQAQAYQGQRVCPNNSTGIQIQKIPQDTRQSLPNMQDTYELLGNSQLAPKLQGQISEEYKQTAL

Take “hIgG1 negative control (Biointron B117901) (antibody)”: the Max MFI in test [1] was 3590; in test [2] it was 2130; in test [3], 3560.

On to “hIgG4 negative control (Biointron B107804) (antibody)”, for which the Max MFI was determined as 1690 in test [1], 1530 in test [2] and 1770 in test [3].
